# Where a chain is given by its changes, count along the chain named.
# T1: human GRO/MGSA (human, UniProt P09341 35-107)
# T1 construct: also called hGRO/MGSA; GRO-alpha
# T1 sequence (looked up): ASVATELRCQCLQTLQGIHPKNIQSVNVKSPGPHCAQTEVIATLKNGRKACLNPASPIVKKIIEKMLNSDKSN
# T2: human RANTES (human, UniProt P13501 24-91)
# T2 construct: also called hRANTES
# T2 sequence (looked up): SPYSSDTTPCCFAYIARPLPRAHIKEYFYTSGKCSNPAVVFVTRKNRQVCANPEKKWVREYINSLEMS
# T3: recombinant human MCP-2 (human, UniProt P80075 24-99)
# T3 construct: also called rhMCP-2
# T3 sequence (looked up): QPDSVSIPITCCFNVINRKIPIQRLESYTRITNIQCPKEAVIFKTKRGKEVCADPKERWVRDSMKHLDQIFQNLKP
# T4: human MIP-1-alpha (human, UniProt P10147 24-92, limits assumed)
# T4 construct: also called hMIP-1-alpha
# T4 sequence (looked up): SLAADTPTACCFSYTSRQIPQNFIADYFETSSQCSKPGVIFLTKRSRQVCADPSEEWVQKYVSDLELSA
# B1: anti-MCP-1 mAb 3.5.1 (antibody, V domains shown)
# VH: QVQLVQSGAEVKKPGASVKVSCKVSGYTLSELSMHWVRQAPGKGLEWMGGFDPEDDETIYAQKFQGRVTMTEDTSTDTAFMELSSLRSEDTAVYYCATHDFWSGYFHYWGQGTLVTVSS
# VL: DIVMTQSPDSLAVSLGERATINCKSSQSVLYSSDNKSYLVWYQQKPGQPPKVLIYWASIRESGVPDRFSGSGSGTDFTLTISSLQAEDVAVYYCQQYYTSPWTFGQGTKVEIKR
# B2: anti-MCP-1 mAb 3.6.1 (antibody, V domains shown)
# VH: B1 VH with S30T, D56G, F80Y, T98I, D100E, H107D
# VL: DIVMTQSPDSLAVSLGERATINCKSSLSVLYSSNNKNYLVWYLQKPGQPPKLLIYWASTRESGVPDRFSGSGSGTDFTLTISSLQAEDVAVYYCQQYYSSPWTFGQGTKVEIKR
# B3: anti-MCP-1 mAb 5.3.1 (antibody, V domains shown)
# VH: B1 VH with D56G, F80Y, Y94F, H99K, D100R, F101E, W102Y, H107D
# VL: DIVMTQSPDSLAVSLGERATINCKSSQSVLYSSNSKNYLAWFQQKPGQPPKLLIYWASTRESGVPDRFSGSGSGTDFTLTISRLQAEDVAVYSCQQYFITPWTFGQGTKVELKR
# B4: anti-MCP-1 mAb 3.8 (antibody, V domains shown)
# VH: QVQLVQSGAEVKKPGASVKVSCKVSGYTLTELSMHWVRQAPGKGLEWMGGFDPENGETIHAQKFQGRVIMTEDTSTDTAYMELSSLRSEDTAVYYCATDQGGYSGYFDCWGQGTLVTVSS
# VL: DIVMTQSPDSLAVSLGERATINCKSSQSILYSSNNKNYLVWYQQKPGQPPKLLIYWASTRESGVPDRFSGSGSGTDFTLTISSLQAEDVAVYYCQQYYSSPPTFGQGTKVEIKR
# notes: also called 3.8.1
# Molecular target: T1, human GRO/MGSA
# Experiment: ELISA, coated antigen
# Procedure, shortened: (§1)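 Plates coated overnight at 4° C with MCP-1, MCP-2, MCP-3, MCP-4, RANTES, GRO-alpha, MIP-1 alpha, eotaxin, rat MCP-1 or mouse JE (2 μg/ml, carbonate buffer pH 9.6), blocked with BSA. Hybridoma supernatants bound 2 hours at room temperature; TMB colour developed about 10 minutes.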
row,Binder,ELISA OD [OD450]
1,B1,0.048
2,B2,0.047
3,B3,0.045
4,B4,0.046

# Molecular target: T2, human RANTES
# Experiment: ELISA, coated antigen
# Procedure, shortened: as §1
row,Binder,ELISA OD [OD450]
1,B1,0.044
2,B2,0.043
3,B3,0.045
4,B4,0.046

# Molecular target: T5, human eotaxin (human, UniProt P51671 24-97)
# T5 construct: also called hEotaxin
# T5 sequence (P51671 24-97 limits assumed): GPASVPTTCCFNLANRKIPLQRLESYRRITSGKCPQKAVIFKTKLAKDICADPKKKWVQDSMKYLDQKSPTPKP
# Experiment: ELISA, coated antigen
# Procedure, shortened: as §1
row,Binder,ELISA OD [OD450]
1,B1,0.043
2,B2,0.043
3,B3,0.042
4,B4,0.042

# Molecular target: T6, recombinant human MCP-3 (human, UniProt P80098 24-99)
# T6 construct: also called rhMCP-3
# T6 sequence (P80098 24-99 limits assumed): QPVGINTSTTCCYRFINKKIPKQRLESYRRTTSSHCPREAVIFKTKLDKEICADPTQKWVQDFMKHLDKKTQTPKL
# Experiment: ELISA, coated antigen
# Procedure, shortened: as §1
row,Binder,ELISA OD [OD450]
1,B1,0.045
2,B2,0.045
3,B3,0.045
4,B4,0.046

# Molecular target: T7, recombinant mouse JE/MCP-1 (mouse, UniProt P10148 24-148)
# T7 construct: also called rmJE/MCP-1
# T7 sequence (P10148 24-148 limits assumed): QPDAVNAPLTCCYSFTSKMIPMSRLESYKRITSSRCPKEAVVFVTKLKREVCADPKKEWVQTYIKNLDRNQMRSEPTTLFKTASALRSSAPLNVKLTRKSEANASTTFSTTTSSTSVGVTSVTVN
# Experiment: ELISA, coated antigen
# Procedure, shortened: as §1
row,Binder,ELISA OD [OD450]
1,B1,0.042
2,B2,0.047
3,B3,0.05
4,B4,0.042

# Molecular target: T3, recombinant human MCP-2
# Experiment: ELISA, coated antigen
# Procedure, shortened: as §1
row,Binder,ELISA OD [OD450]
1,B1,0.042
2,B2,0.052
3,B3,0.043
4,B4,0.042

# Molecular target: T8, recombinant human MCP-4 (human, UniProt Q99616 24-98, limits assumed)
# T8 construct: also called rhMCP-4
# T8 sequence (Q99616 24-98 limits assumed): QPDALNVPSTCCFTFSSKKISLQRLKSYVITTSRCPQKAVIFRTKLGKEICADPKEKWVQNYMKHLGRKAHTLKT
# Experiment: ELISA, coated antigen
# Procedure, shortened: as §1
row,Binder,ELISA OD [OD450]
1,B1,0.044
2,B2,0.048
3,B3,0.043
4,B4,0.044

# Molecular target: rat MCP-1 (rat, UniProt P14844 24-148)
# Sequence (P14844 24-148 limits assumed): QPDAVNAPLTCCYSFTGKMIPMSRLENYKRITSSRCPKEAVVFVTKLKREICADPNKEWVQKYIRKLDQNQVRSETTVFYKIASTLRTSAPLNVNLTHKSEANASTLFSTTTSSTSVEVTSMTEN
# Experiment: ELISA, coated antigen
# Procedure, shortened: as §1
row,Binder,ELISA OD [OD450]
1,B1,0.053
2,B2,0.046
3,B3,0.047
4,B4,0.062

# Molecular target: T4, human MIP-1-alpha
# Experiment: ELISA, coated antigen
# Procedure, shortened: as §1
row,Binder,ELISA OD [OD450]
1,B1,0.047
2,B2,0.047
3,B3,0.042
4,B4,0.046

# Molecular target: T9, human monocyte chemo-attractant protein-1 (MCP-1) (human, UniProt P13500 24-99)
# T9 construct: 76-residue recombinant protein from E. coli, bought (PeproTech); also called hMCP-1(MCAF); human MCP-1
# T9 sequence (P13500 24-99): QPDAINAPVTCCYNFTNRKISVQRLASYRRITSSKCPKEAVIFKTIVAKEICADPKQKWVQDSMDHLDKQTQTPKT
# Experiment: ELISA, coated antigen; ELISA, purified clone 1:50 on coated hMCP-1 (2 ug/mL), cross-reactivity panel
# Description: Determining cross-reactivity of anti-MCP-1 antibodies with other chemokines. ELISA plates (Fisher Cat. No. 12-565-136) were coated with 50 μl/well of MCP-1, MCP-2, MCP-3, MCP-4, RANTES, GRO-alpha, MIP-1 alpha, eotaxin, rat MCP-1 and mouse JE (2 μg/ml) in coating buffer (0.1 M carbonate buffer, pH 9.6, NaHCO₃ 8.4 g/L, then incubated at 4° C. overnight. After incubation, the plates were washed with washing buffer (0.05% Tween 20 in PBS) three times. 200 μL/well blocking buffer (0.5% BSA, 0.1% Tween 20, 0.01% Thimerosal in 1×PBS) were added and the plates incubated at room temperature for 1 hour. After incubation, the plates were washed with washing buffer three times. 50 μL/well of hybridoma supernatants, and positive and negative controls (positive control was anti-MCP-1 antibody purchased from R&D Sciences, and negative control was an antibody to Keyhole Limpet Hemocyanin produced at Abgenix) were added and the plates incubated at room temperature for 2 hours. After incubation, the plates were washed three times with washing buffer. […] After incubation, the plates were washed three times with washing buffer and 100 μL/well of TMB (BioFX Lab. Cat. #TMSK-0 100-01) was added and the plates allowed to develop for about 10 minutes.
row,Binder,ELISA OD [OD450]
1,B1,0.194
2,B2,0.342
3,B3,0.272
4,B4,0.275

# Molecular target: T9, human monocyte chemo-attractant …
# Experiment: Biacore, mAb immobilized, MCP-1 injected; Biacore, 25 C, native MCP-1 injected over immobilized mAb
# Description: Determination of anti-MCP-1 antibody affinity using Biacore analysis. The antibody/MCP-1 interaction analysis was performed at 25° C. using two CM5 chips docked in Biacore 3000 optical biosensors. Individual flow cells on each chip were activated with a 7-minute injection of NHS/EDC, carbohydrazide was coupled through the NHS ester using a 7-minute injection, and the residual activated groups were blocked with a 7-minute injection of ethanolamine. The monosaccharide residues of each antibody were oxidized using 1 mM sodium metaperiodate in 100 mM sodium acetate, pH 5.5 at 4° C. for 30 minutes. The oxidized antibody was desalted into 100 mM sodium acetate, pH 5.0, to couple the antibody to the carbohydrazide-modified surface. The mAb surfaces were stabilized by reducing the hydrazone bond with 0.1 M sodium cyanoborohydride. The antigen/antibody interaction was tested by injecting 0, 0.049, 0.15, 0.4, 1.3, 4 and 12 nM of MCP-1 (Peprotech, N.J.) in running buffer (10 mM HEPES, 150 mM NaCl, 0.005% surfactant, 200 μg/ml BSA, pH 7.4). The surfaces were regenerated with a 12-second pulse of 15 mM H₃PO₄. The antigen/antibody interaction was tested by injecting duplicate antigen samples diluted in running buffer (10 mM HEPES, […], 0.005% surfactant, 200 μg/mL BSA, pH 7.4), in a 300-fold concentration range. The surfaces were regenerated with a 12-second pulse of 15 mM H₃PO₄. To determine the kinetics of each interaction, the data sets were fit globally to a 1:1 interaction model that included a parameter for mass transport.
row,Binder,Kd [nM]
1,B1,0.1
2,B2,0.015
3,B3,0.45
4,B4,0.0034

# Molecular target: T9, human monocyte chemo-attractant …
# Experiment: cell-based or functional assay
Binder,IC50 Ca++ Flux [µg/mL],IC50 Chemotaxis [µg/mL]
B1,0.58,3.1
B2,0.17,0.52
B3,1.8,2.6
B4,0.27,0.7

# Molecular target: T9, human monocyte chemo-attractant …
# Experiment: ELISA, hybridoma supernatant on coated MCP-1; ELISA, hybridoma supernatant on plate-coated non-reduced MCP-1 (2 ug/mL)
# Description: Selection of candidate antibodies for ELISA. After 14 days of culture, hybridoma supernatants were screened for MCP-1-specific monoclonal antibodies. The ELISA plates (Fisher, Cat. No. 12-565-136) were coated with 50 μl/well of MCP-1 (2 μg/mL) in Coating Buffer (0.1 M Carbonate Buffer, pH 9.6, NaHCO₃8.4 g/L), then incubated at 4° C. overnight. After incubation, the plates were washed with Washing Buffer (0.05% Tween 20 in PBS) three times. 200 μl/well Blocking Buffer (0.5% BSA, 0.1% Tween 20, 0.01% Thimerosal in 1× PBS) were added and the plates incubated at room temperature for 1 hour. After incubation, the plates were washed with Washing Buffer three times. 50 μL/well of hybridoma supernatants, and positive and negative controls were added and the plates incubated at room temperature for 2 hours.
# The positive control used throughout was XMG2 MCP-1 Group 1, footpad N160-7 and the negative control was XMG2 KLH Group 1, footpad L627-6. After incubation, the plates were washed three times with Washing Buffer. […] In the secondary screen, three sets of samples (positives in first screening) were screened, one set for hIgG detection, one set for hKappa detection, and one set for hlambda detection. After incubation, the plates were washed three times with Washing Buffer. 100 μL/well of TMB (BioFX Lab. Cat. #TMSK-0100-01) were added and the plates allowed to develop for about 10 minutes (until negative control wells barely started to show color), then 50 μL/well stop solution (TMB Stop Solution (BioFX Lab. Cat. #STPR-0100-01) were added and the plates read on an ELISA plate reader at wavelength 450 nm. The OD readings from the positive wells are presented in Table 9.
row,Binder,ELISA OD-MCP-1 [OD450]
1,B1,3.77
2,B2,3.59
3,B3,4
4,B4,3.6

# Reference: US20050058639A1 (AstraZeneca / MedImmune, published 2005)
